± gives the uncertainty stated by the source.
B1: Histidine--tRNA ligase, cytoplasmic, residues 8 to 45; numbered along this chain, P12081 (parent)
chain: EELVKLQGERVRGLKQQKASAELIEEEVAKLLKLKAQL

Variants of: B1
Assay: abundance fitness (aPCA) (normalised: wild type 0, dead -1); higher = more abundant; growth selection in yeast, the domain comes from the species named
Conditions: Homo sapiens

Variant | abundance fitness
E9G | -0.357 ± 0.084
E9R | -0.464 ± 0.086
E9T | -0.246 ± 0.075
R10I | -0.035 ± 0.13
R10M | -0.06 ± 0.098
R10G | -0.229 ± 0.081
R10Q | -0.097 ± 0.095
R10D | -0.084 ± 0.14
R10W | -0.887 ± 0.12
R10P | 0.053 ± 0.081
R10T | 0.013 ± 0.081
R10Y | -0.125 ± 0.12
R10V | 0.039 ± 0.084
R10H | -0.131 ± 0.12
R10C | -0.379 ± 0.087
R10L | -0.026 ± 0.073
R10N | -0.198 ± 0.08
R10S | -0.213 ± 0.074
R10K | 0.245 ± 0.12
R10E | -0.044 ± 0.093
R10F | -0.288 ± 0.1

Variant | abundance fitness
R12T | 0.05 ± 0.087
R12G | 0.096 ± 0.13
R12L | -0.034 ± 0.078
R12M | -0.216 ± 0.14
R12A | 0.218 ± 0.083
R12E | 0.231 ± 0.099
R12S | 0.098 ± 0.084
R12D | 0.122 ± 0.088
R12Q | 0.101 ± 0.087
R12N | -0.022 ± 0.089
R12V | -0.008 ± 0.081
R12W | -0.018 ± 0.18
R12H | 0.005 ± 0.075
R12I | -0.077 ± 0.077
R12F | -0.172 ± 0.089
G8W | -0.452 ± 0.27
G8Q | 0.194 ± 0.11
G8S | 0.074 ± 0.068
G8F | -0.287 ± 0.12
G8V | 0.085 ± 0.098
G8P | -0.25 ± 0.094

Variant | abundance fitness
G8K | 0.377 ± 0.27
G8I | 0.086 ± 0.12
G8A | 0.101 ± 0.09
G8T | 0.217 ± 0.1
G8R | -0.04 ± 0.082
G8D | 0.054 ± 0.097
G8H | -0.409 ± 0.1
G8N | -0.075 ± 0.09
G8M | 0.106 ± 0.15
G8C | -1.04 ± 0.1
G8L | -0.002 ± 0.075
G8Y | -0.285 ± 0.094
G8E | 0.44 ± 0.11
Q16K | -0.004 ± 0.085
Q16C | -0.288 ± 0.096
Q16F | -0.397 ± 0.08
Q16A | 0.144 ± 0.083
Q16E | 0.132 ± 0.095
Q16G | -0.242 ± 0.079
Q16M | 0.028 ± 0.078
Q16L | -0.057 ± 0.072

Variant | abundance fitness
Q16D | 0.083 ± 0.12
Q16H | -0.134 ± 0.095
Q16I | -0.227 ± 0.076
G13N | 0.307 ± 0.19
G13Q | 0.253 ± 0.1
G13D | 0.079 ± 0.11
G13S | 0.154 ± 0.082
G13L | 0.197 ± 0.079
G13F | 0.079 ± 0.11
G13A | 0.23 ± 0.083
G13V | 0.198 ± 0.08
G13H | 0.079 ± 0.094
G13M | 0.324 ± 0.099
G13K | 0.168 ± 0.094
G13T | 0.218 ± 0.083
G13P | -0.237 ± 0.083
G13R | 0.005 ± 0.072
G13C | 0.271 ± 0.085
G13I | 0.188 ± 0.11
G13W | 0.055 ± 0.082
G13Y | -0.136 ± 0.15

Reference: the Human Domainome abundance scans (Beltran et al. 2025)
